Reference: patent US20030203372A1, “Analysis method” (priority 2000, published 2003)

Columns and labels:
human macrophages = assay: Custom gene array, macrophages with no cytokines, IL-10 or LPS + IFN, in normoxia and hypoxia; type: cell-based; settings: for mRNA EXPRESSION (experimental condition) #1: #1 no cytokines/normoxia; for mRNA EXPRESSION (experimental condition) #2: #2 no cytokines/hypoxia; for mRNA EXPRESSION (experimental condition) #3: #3 IL-10/normoxia; for mRNA EXPRESSION (experimental condition) #4: #4 IL-10/hypoxia; for mRNA EXPRESSION (experimental condition) #5: #5 LPS/IFN/normoxia; for mRNA EXPRESSION (experimental condition) #6: #6 LPS/IFN/hypoxia
Protocol: Macrophages were derived and cultured as described elsewhere in the specification. A total of 6 experimental conditions were analysed, as shown below. Where cells were treated with cytokines or hypoxia (0.1% oxygen), this was for 6 hr. Lipopolysaccharide (LPS) (from E.coli 026:B6; Sigma), gamma Interferon (IFN) and Interleukin-10 (IL-10) were all used at a final concentration of 100 ng/ml. The effect of gamma Interferon and Lipopolysaccharide is to activate macrophages, with a Th1 biased phenotype, as found in many inflammatory conditions. Interleukin-10 is a Th2 cytokine and de-activates macrophages, and suppresses their effector functions.

[1] = system: human breast and ovary tumors; assay: Custom gene array, breast and ovary tumors versus normal adjacent tissue; settings: for gene expression level on custom gene array, Breast nor H / gene expression level on custom gene array, Breast nor K / gene expression level on custom gene array, Ovary nor E / gene expression level on custom gene array, Ovary nor F / gene expression level on custom gene array, Ovary nor G: normal adjacent tissue; for gene expression level on custom gene array, Breast nor H / gene expression level on custom gene array, Breast tum H: patient H; for gene expression level on custom gene array, Breast nor K / gene expression level on custom gene array, Breast tum K: patient K; for gene expression level on custom gene array, Breast tum H / gene expression level on custom gene array, Breast tum K / gene expression level on custom gene array, Ovary tum E / gene expression level on custom gene array, Ovary tum F / gene expression level on custom gene array, Ovary tum G: tumor tissue; for gene expression level on custom gene array, Ovary nor E / gene expression level on custom gene array, Ovary tum E: patient E; for gene expression level on custom gene array, Ovary nor F / gene expression level on custom gene array, Ovary tum F: patient F; for gene expression level on custom gene array, Ovary nor G / gene expression level on custom gene array, Ovary tum G: patient G
From the text: A study has been performed to examine the expression of these genes in a selection of breast and ovary tumors, comparing expression with normal adjacent tissue from the same patient. There is expected to be a large degree of variation between different patients, and the study here contains only 5 patients with a range of diagnoses.
Patients are designated as Letters:
E: person. Diagnosis: ovarian adenocarcinoma. Normal ovarian tissue derived from an age-matched separate individual.
: person. Diagnosis: poorly differentiated adenocarcinoma. Normal ovarian tissue derived from the same individual.
G: person. Diagnosis: moderately-differentiated adenocarcinoma. Normal ovarian tissue derived from the same individual.
H: person. Diagnosis: invasive ductal carcinoma. Normnal breast tissue derived from the same individual.
K: person. Diagnosis: invasive ductal carcinoma. Normal breast tissue derived from the same individual.
Data normalisation was done per-chip to correct for differences in labelling and hybridization efficiency. Per-gene normalisation was done such that the expression values of each gene are relative to the median value of that gene throughout the series of samples. By comparing the expression values under normal (nor) and tumor (turn) for a single patient, differences in expression between the normal and malignant tissue of that patient can be inferred.

[2] = Table 17, referenced to median of the gene over 6 conditions
[3] = Table 15, referenced to the median value of that gene throughout all 6 conditions

| Molecule | gene expression level on custom gene array, Breast nor H ([1]; Table 19) | gene expression level on custom gene array, Breast nor K ([1]; Table 19) | gene expression level on custom gene array, Breast tum H ([1]; Table 19) | gene expression level on custom gene array, Breast tum K ([1]; Table 19) | gene expression level on custom gene array, Ovary nor E ([1]; Table 19) | gene expression level on custom gene array, Ovary nor F ([1]; Table 19) | gene expression level on custom gene array, Ovary nor G ([1]; Table 19) | gene expression level on custom gene array, Ovary tum E ([1]; Table 19) | gene expression level on custom gene array, Ovary tum F ([1]; Table 19) | gene expression level on custom gene array, Ovary tum G ([1]; Table 19) | mRNA EXPRESSION (experimental condition) #1 (human macrophages; [3]) | mRNA EXPRESSION (experimental condition) #2 (human macrophages; [3]) | mRNA EXPRESSION (experimental condition) #3 (human macrophages; [3]) | mRNA EXPRESSION (experimental condition) #4 (human macrophages; [3]) | mRNA EXPRESSION (experimental condition) #5 (human macrophages; [3]) | mRNA EXPRESSION (experimental condition) #6 (human macrophages; [3]) | other results |
| --- | --- | --- | --- | --- | --- | --- | --- | --- | --- | --- | --- | --- | --- | --- | --- | --- | --- |
| p1K2 (nucleic acid, listed as Homo Sapiens) DNA: AAGTCTCAGAGGCTGGAGAGCAGAGCACCAAGATCGTTCTGGCAGGAACAGCCAGTGGGAGGTTCCAGCTGAGCGCTCCCCAGAGGTGAGCTGATCCCCAGCCACAGCACACAGGACCAGGCTGCGAGAACAGCATCATCAGCATCATGCTATTACAATCCCAAACCATGGGGGTTTCTCACAGCTTTACACCAAAGGGCATCACTATCCCTCAAAGAGAGAAACCTGGACACATGTACCAAAACGAAGATTACCTGCAGAACGGGCTGCCAACAGAAACCACCGTTCTTGGGACAGTCCAGATCCTGTGTTGCCTGTTGATTTCAAGTCTGGGGGCCATCTTGGTTTTTGCTCCCTACCCCTCCCACTTCAATCCAGCAATTTCCACCACTTTGATGTCTGGGTACCCATTTTTAGGAGCTCTGTGTTTTGGCATTACTGGATCCCTCTCAATTATCTCTGGAAAACAATCAACTAAGCCCTTTGACCTGAGCAGCTTGACCTCAAATGCAGTGAGTTCTGTTACTGCAGGAGCAGGCCTCTTCCTCCTTGCTGACAGCATGGTAGCCCTGAGGACTGCCTCTCAACATTGTGGCTCAGAAATGGATTATCTATCCTCATTGCCTTATTCGGAGTACTATTATCCAATATATGAAATCAAAGATTGTCTCCTGACCAGTGTCAGTTTAACAGGTGTCCTAGTGGTGATGCTCATCTTCACTGTGCTGGAGCTCTTATTAGCTGCATACAGTTCTGTCTTTTGGTGGAAACAGCTCTACTCCAACAACCCTGGGAGTTCATTTTCCTCGACCCAGTCACAAGATCATATCCAACAGGTCAAAAAGAGTTCTTCACGGTCTTGGATATAAGTAACTCTTGGCCTCAGAGGAAGGAAAAGCAACTCAACACTCATGGTCAAGTGTGATTAGACTTTCCTGAAATCTCTGCCATTTTAGATACTGTGAAACAAACTAAAAAAAAAAAAGCTTTTGTTTTGTATTTGTTTACTATGAGTCGTTATTTAATTTCTCTTGAAAATAATTTCCTCAAAGCCCAAGTCAATAAA | 1.00 | 0.79 | 0.49 | 1.52 | 0.47 | 1.30 | 2.32 | 0.29 | 1.06 | 0.31 | – | – | – | – | – | – | mRNA EXPRESSION (experimental condition) #1 (human macrophages; [2]): 1.30; mRNA EXPRESSION (experimental condition) #2 (human macrophages; [2]): 0.98; mRNA EXPRESSION (experimental condition) #3 (human macrophages; [2]): 0.51; mRNA EXPRESSION (experimental condition) #4 (human macrophages; [2]): 0.59; mRNA EXPRESSION (experimental condition) #5 (human macrophages; [2]): 1.11; mRNA EXPRESSION (experimental condition) #6 (human macrophages; [2]): 0.91 |
| p1K8 (nucleic acid, listed as Homo Sapiens) DNA: AGCACAGGACACAGCTGGGTTCTGAAGCTTCTGAGTTCTGCAGCCTCACCTCTGAGAAAACCTCTTTTCCACCAATACCATGAAGCTCTGCGTGACTGTCCTGTCTCTCCTCATGCTAGTAGCTGCCTTCTGCTCTCCAGCGCTCTCAGCACCAATGGGCTCAGACCCTCCCACCGCCTGCTGCTTTTCTTACACCGCGAGGAAGCTTCCTCGCAACTTTGTGGTAGATTACTATGAGACCAGCAGCCTCTGCTCCCAGCCAGCTGTGGTATTCCAAACCAAAAGAAGCAAGCAAGTCTGTGCTGATCCCAGTGAGACCTGGGTCCAGGAGTACGTGTATGACCTGGAACTGAACTGAGCTGCTCAGAGACAGGAAGTCTTCAGGGAAGGTCACCTGAGCCCGGATGCTTCTCCATGAGACACATCTCCTCCATACTCAGGACTCCTCTCCGCAGTTCCTGTCCCTTCTCTTAATTTAATCTTTTTTATGTGCCGTGTTATTGTATTAGGTGTCATTTCCATTATTTATATTAGTTTAGCCAAAGGATAAGTGTCCCCTATGGGGATGGTCCACTGTCACTGTTTCTCTGCTGTTGCAAATACATGGATAACACATTTGATTCTGTGTGTTTTCATAATAAAACTTTAAAATAAAATGCAGACAGTT | 1.94 | 1.75 | 0.68 | 1.62 | 1.00 | 2.48 | 1.94 | 0.56 | 2.29 | 0.54 | 0.82 | 0.40 | 1.15 | 0.38 | 91.4 | 68.4 | – |
| p1F17 (nucleic acid, listed as Homo Sapiens) DNA: CAGCCTTATAAGCTGAGGGAGTGGAGAGGCCCGGGGCCAGGAAAGCAGAGACAGACAAAGCGTTAGGAGAAGAAGAGAGGCAGGGAAGACAAGCCAGGCACGATGGCCACCTTCCCACCAGCAACCAGCGCCCCCCAGCAGCCCCCAGGCCCGGAGGACGAGGACTCCAGCCTGGATGAATCTGACCTCTATAGCCTGGCCCATTCCTACCTCGGAGGTGGAGGCCGGAAAGGTCGCACCAAGAGAGAAGCTGCTGCCAACACCAACCGCCCCAGCCCTGGCGGGCACGAGAGGAAACTGGTGACCAAGCTGCAGAATTCAGAGAGGAAGAAGCGAGGGGCACGGCGCTGAGACAGAGCTGGAGATGAGGCCAGACCATGGACACTACACCCAGCAATAGAGACGGGACTGCGGAGGAAGGAGGACCCAGGACAGGATCCAGGCCGGCTTGCCACACCCCCCACCCCTAGGACTTATTCCCGCTGACTGAGTCTCTGAGGGGCTACCAGGAAAGCGCCTCCAACCCTAGCAAAAGTGCAAGATGGGGAGTGAGAGGCTGGGAATGGAGGGGCAGAGCCAGGAAGATCCCCCAGAAAAGAAAGCTACAGAAGAAACTGGGGCTCCTCCAGGGTGGCAGCAACAATAAATAGACACGCACGGCAGCCACAGCTTGGGTGTGTGTTCATCCTTGTTAAAAAAAAAAAAAAAAAAAAAAAAAA | 1.00 | 0.92 | 0.97 | 1.33 | 1.18 | 1.27 | 0.55 | 0.17 | 1.47 | 1.79 | 0.26 | 1.78 | 0.16 | 0.88 | 1.16 | 2.59 | gene expression level on custom gene array, Breast nor H ([1]; Table 18): 1.00; gene expression level on custom gene array, Breast nor K ([1]; Table 18): 0.92; gene expression level on custom gene array, Breast tum H ([1]; Table 18): 0.97; gene expression level on custom gene array, Breast tum K ([1]; Table 18): 1.33; gene expression level on custom gene array, Ovary nor E ([1]; Table 18): 1.18; gene expression level on custom gene array, Ovary nor F ([1]; Table 18): 1.27; gene expression level on custom gene array, Ovary nor G ([1]; Table 18): 0.55; gene expression level on custom gene array, Ovary tum E ([1]; Table 18): 0.17; gene expression level on custom gene array, Ovary tum F ([1]; Table 18): 1.47; gene expression level on custom gene array, Ovary tum G ([1]; Table 18): 1.79 |
